Measurements: US20030092616A1, “STAT6 activation gene” (priority 2001, published 2003)

B1: 217 (nucleic acid, listed as Homo sapiens)
chain: AAGCAATGCGCAGCAGCCAGATCTGTCCAAAGCAGTTTCACTCTCAATGGGACTGTATATGGGAGAGACAGAAACAAAAGTGATGGGAAATGACCTGGGATTCCCACAGCAGGGCCAAATCAGCCTTTCCTCGGGGGAAACAGACTTAAAGCTTTTGGAAGAAAGCATTGCAAACCTCAATAGGTCGACCAGTGTTCCAGAGAACCCCAAGAGTTCAGCATCCACTGCTGTGTCTGCTGCCCCCACAGAGAAGGAGTTTCCAAAAACTCACTCTGATGTATCTTCAGAACAGCAACATTTGAAGGGCCAGACTGGCACCAACGGTGGCAATGTGAAATTGTATACCACAGACCAAAGCACCTTTGACATTTTGCAGGATTTGGAGTTTTCTTCTGGGTCCCCAGGTAAAGAGACGAATGAGAGTCCTTGGAGATCAGACCTGTTGATAGATGAAAACTGTTTGCTTTCTCCTCTGGCGGGAGAAGACGATTCATTCCTTTTGGAAGGAAACTCGAATGAGGACTGCAAGCCTCTCATTTTACCGGACACTAAACCCAAAATTAAGGATAATGGAGATCTGGTTTTGTCAAGCCCCAGTAATGTAACACTGCCCCAAGTGAAAACAGAAAAAGAAGATTTCATCGAACTCTGCACCCCTGGGGTAATTAAGCAAGAGAAACTGGGCACAGTTTACTGTCAGGCAAGCTTTCCTGGAGCAAATATAATTGGTAATAAAATGTCTGCCATTTCTGTTCATGGTGTGAGTACCTCTGGAGGACAGATGTACCACTATGACATGAATACAGCATCCCTTTCTCAACAGCAGGATCAGAAGCCTATTTTTAATGTCATTCCACCAATTCCCGTTGGTTCCGAAAATTGGAATAGGTGCCAAGGATCTGGAGATGACAACTTGACTTCTCTGGGGACTCTGAACTTCCCTGGTCGAACAGTTTTTTCTAATGGCTATTCAAGCCCCAGCATGAGACCAGATGTAAGCCCTCCTCCATCCAGCTCCTCAACAGCAACAACAGGACCACCTCCCAAACTCTGCCTGGTGTGCTCTGATGAAGCTTCAGGATGTTATTATGGAGTCTTAACTTGTGGAAGCTGTAAAGTTTTCTTCAAAAGAGCAGTGGAAGGACAGCACAATTACCTATGTGCTGGAAGGAATGATTGCATCATCGATAAAATTCGAAGAAAAAACTGCCCAGCATGCCGCTATCGAAAATGTCTTCAGGCTGGAATGAACCTGGAAGCTCG
modifications: CDS (47)..(1261)
B2: 219 (nucleic acid, listed as Homo sapiens)
chain: GTATACCACAGACCAAAGCACCTTTGACATTTTGCAGGATTTGGAGTTTTCTTCTGGGTCCCCAGGTAAAGAGACGAATGAGAGTCCTTGGAGATCAGACCTGTTGATAGATGAAAACTGTTTGCTTTCTCCTCTGGCGGGAGAAGACGATTCATTCCTTTTGGAAGGAAACTCGAATGAGGACTGCAAGCCTCTCATTTTACCGGACACTAAACCCAAAATTAAGGATAATGGAGATCTGGTTTTGTCAAGCCCCAGTAATGTAACACTGCCCCAAGTGAAAACAGAAAAAGAAGATTTCATCGAACTCTGCACCCCTGGGGTAATTAAGCAAGAGAAACTGGGCACAGTTTACTGTCAGGCAAGCTTTCCTGGAGCAAATATAATTGGTAATAAAATGTCTGCCATTTCTGTTCATGGTGTGAGTACCTCTGGAGGACAGATGTACCACTATGACATGAATACAGCATCCCTTTCTCAACAGCAGGATCAGAAGCCTATTTTTAATGTCATTCCACCAATTCCCGTTGGTTCCGAAAATTGGAATAGGTGCCAAGGATCTGGAGATGACAACTTGACTTCTCTGGGGACTCTGAACTTCCCTGGTCGAACAGTTTTTTCTAATGGCTATTCAAGCCCCAGCATGAGACCAGATGTAAGCTCTCCTCCATCCAGCTCCTCAACAGCAACAACAGGACCACCTCCCAAACTCTGCCTGGTGTGCTCTGATGAAGCTTCAGGATGTCATTATGGAGTCTTAACTTGTGGAAGCTGTAAAGTTTTCTTCAAAAGAGCAGTGGAAGGACAGCACAATTACCTATGTGCTGGAAGGAATGATTGCATCATCGATAAAATTCGAAGAAAAAACTGCCCAGCATGCCGCTATCGAAAATGTCTTCAGGCTGGAATGAACCTGGAAGCTCGAAAAAC
modifications: CDS (398)..(928)
B3: 26 (nucleic acid, listed as Homo sapiens)
chain: AGCCAAGGAGCAATAACTGAACGTTTAAGAAGCTTCAGTATGCATGATTTAACAACTATCCAAGGTGATGAGCCTGTGGGACAAAGACCATACCAACCTCTACCAGAAGCAAAAAAGAAAAGTAAACCAGCCCCCAGTGAATCAGCAGGTTATGGAATTCCACTGAAAGACGGAGATGAGAAAACAGATGAAGAAGCAGAGGGGCCATATTCAGATAATGAGATGTTAACACACAAAGGGCTTCGAAGATCGCAAAGCATGAAATCTGTGAAAACCACCAAAGGCCGCAAAGAGGTGCGGTACGGGTCACTAAAATACAAAGTGAAGAAACGACCACAAGTGTATTTTTAGTCATCTACACGTCAAATATCCCAAGACAGATTATGCTAAATACATCGACTTCATCTTCTAACATGATATATTCAGGATTTACACATTAAAATGATTATTT
modifications: CDS (40)..(348)
B4: 237 (nucleic acid, listed as Homo sapiens)
chain: TGCGCGTGCGCAGGGATAAGAGAGCGGTCTGGACAGCGCGTGGCCGGCGCCGCTGTGGGGACAGCATGAGCGGCGGTTGGATGGCGCAGGTTGGAGCGTGGCGAACAGGGGCTCTGGGCCTGGCGCTGCTGCTGCTGCTCGGCCTCGGACTAGGCCTGGAGGCCGCCGCGAGCCCGCTTTCCACCCCGACCTCTGCCCAGGCCGCAGGCCCCAGCTCAGGCTCGTGCCCACCCACCAAGTTCCAGTGCCGCACCAGTGGCTTATGCGTGCCCCTCACCTGGCGCTGCGACAGGGACTTGGACTGCAGCGATGGCAGCGATGAGGAGGAGTGCAGGATTGAGCCATGTACCCAGAAAGGGCAATGCCCACCGCCCCCTGGCCTCCCCTGCCCCTGCACCGGCGTCAGTGACTGCTCTGGGGGAACTGACAAGAAACTGCGCAACTGCAGCCGCCTGGCCTGCCTAGCAGGCGAGCTCCGTTGCACGCTGAGCGATGACTGCATTCCACTCACGTGGCGCTGCGACGGCCACCCAGACTGTCCCGACTCCAGCGACGAGCTCGGCTGTGGAACCAATGAGATCCTCCCGGAAGGGGATGCCACAACCATGGGGCCCCCTGTGACCCTGGAGAGTGTCACCTCTCTCAGGAATGCCACAACCATGGGGCCCCCTGTGACCCTGGAGAGTGTCCCCTCTGTCGGGAATGCCACATCCTCCTCTGCCGGAGACCAGTCTGGAAGCCCAACTGCCTATGGGGTTATTGCAGCTGCTGCGGTGCTCAGTGCAAGCCTGGTCACCGCCACCCTCCTCCTTTTGTCCTGGCTCCGAGCCCAGGAGCGCCTCCGCCCACTGGGGTTACTGGTGGCCATGAAGGAGTCCCTGCTGCTGTCAGAACAGAAGACCTCGCTGCCCTGAGGACAAGCACTTGCCACCACCGTCACTCAGCCCTGGGCGTAGCCGGACAGGAGGAGAGCAGTGATGCGGATGGGTACCCGGGCACACCAGCCCTCAGAGACCTGAGCTCTTCTGGCCACGTGGAACCTCGAACCCGAGCTCCTGCAGAAGTGGCCCTGGAGATTGAGGGTCCCTGGACACTCCCTATGGAGATCCGGGGAGCTAGGATGGGGAACCTGCCACAGCCAGAACTGAGGGGCTGGCCCCAGGCAGCTCCCAGGGGGTAGAACGGCCCTGTGCTTAAGACACTCCTGCTGCCCCGTCTGAGGGTGGCGATTAAAGTTGCT
modifications: CDS (66)..(911)

What follows are molecules tested on STAT6 (assay: Screening of full-length cDNA clones for promotion of STAT6 activation (luciferase reporter N4×8-luc)). Conditions: NIH3T3 cells cotransfected with N4×8-luc reporter and cDNA plasmid; 48 h culture, then mouse IL-4 0.5 ng/ml for 6 h.
Assay type: cell-based
Procedure: As a preferable method, NIH3T3 cells are inoculated on 10% FBS (Fetal Bovine Serum)-containing IMDM medium in a 96-well cell culture plate to a final cell density of 1×10^4 cells/well, and cultured for 24 hours at 37° C., in the presence of 5% CO2. Then, the luciferase reporter plasmid N4×8-luc which has a STAT6 response sequence, and the expression vector are cotransfected into the cells in a well using FuGENE 6 (Roche). After 48 hours of culture at 37° C., in the presence of 5% CO2 mouse IL-4 (Immuno Biological Laboratories Co., Ltd.) is added to a final concentration of 0.5 ng/ml. After culturing for further 6 hours, promoting activity for STAT6 activation is then measured by measuring luciferase activity using a long term luciferase assay system, Picagene LT2.0 (Toyo Ink Mfg). For example, luciferase activity can be measured using PerkinElmer's Wallac ARVOTMST 1420 MULTILABEL COUNTER. The method for gene introduction by FuGENE6, and measurement of luciferase activity by Picagene LT2.0 can be performed respectively according to the attached protocols. In a method of gene introduction with a 96-well plate using FuGENE6, the amount of FuGENE6 per 1 well is suitably 0.3 to 0.5 μl, preferably 0.3 μl; the amount of N4×8-luc reporter plasmid is suitably 50 to 100 ng, preferably 100 ng; and the amount of expression vector is suitably 50 to 100 ng, preferably 100 ng. An ability (action) to promote STAT6 activation refers to an ability to increase the reporter activity (luciferase activity) relative to the control experiment (for cells into which the reporter gene and a null vector were introduced). Increase in reporter activity is preferably by a factor of 1.5 or more, more preferably by a factor of 3 or more, and still more preferably by a factor of 6 or more.
NIH3T3 cells (purchased from Dainippon Pharmaceutical) were grown to 1×10^4 cells/well in a 96 well plate for cell culture for 24 hours at 37° C. (in the presence of 5% CO2) using 10% FBS containing IMDM medium. Then, 100 ng of luciferase reporter plasmid N4×8-luc having a STAT6 response sequence and 2 μl of the full-length cDNA prepared in above Example 1.(3) were cotransfected into the cells in a well using FuGENE 6 (purchased from Roche) according to the manufacturer's protocol. The luciferase reporter plasmid N4×8-luc having the STAT6 response sequence was constructed as follows. […] 157, 2058-2065 (1996)], oligonucleotides having the following sequences were synthesized:
The synthesized oligonucleotides were dissolved in sterile water to be 1μg/μl, respectively, mixed in 10 μl lots, and adjusted the volume to 32 μl with sterile water. The solution was heated for 5 min at 90° C., and gradually cooled down to room temperature to prepare a double-stranded oligonucleotide solution. The solution was reacted with T4 polynucleotide kinase (Takara Shuzo) according to the attached manual, then the reaction product was purified in a usual manner. Separately, SV40 promoter region of pGL3-Promoter vector (Promega) was replaced by the HSV thymidine kinase promoter sequence (from −50 to +10) with Hind III site and BglII site to construct a vector tk-luc. The aforesaid double-stranded oligonucleotide fragments were inserted into the XhoI site of this tk-luc vector using T4 DNA ligase (GIBCO/BRL). The obtained clones were sequenced according to a usual method, and clones in which plural oligonucleotide fragments were inserted were selected. […] The four-interlinked DNA fragments were excised from the N4×4-luc with a XhoI and a BglII site and purified to be inserted into a BamHI and a XhoI site of pBluescript II KS+ (Stratagene). The four-interlinked DNA fragments were excised from this plasmid with KpnI and SpeI and inserted into a KpnI and a NheI site of N4×4-luc plasmid to finally obtain N4×8-luc.

Molecule | Activity = (luciferase activity of the gene of each SEQ ID NO:)/(luciferase activity of pME18S-FL3)
B1 | 1521.5
B2 | 12.7
B3 | 33.5
B4 | 105.1
